In PMC3557450 one finds Kd data, which are given here for two substances.

Usually Kd stands for the constant that tells how readily two partners part at equilibrium.

For this test, the target named is soluble recombinant pMHC II I-E^d/λ2^315 (not stated | mouse). The test can be described thus: SPR.

“soluble scTCR Vαβ 4B2A1 mutant PS (L115P^linker/L214S^Vβ)”: the Kd is 5.8 µM.
In the case of “soluble scTCR Vαβ 4B2A1 mutant PRS (L115P^linker/K199R^Vβ/L214S^Vβ)” it was 7 µM.
